Legend:
Assay in all cases: BiFC in tobacco leaf epidermal cells
[1] = target: BSU1 (BiFC construct tested with BSK1-cYFP) (Arabidopsis, UniProt Q9LR78 1-793)
Text: (§1) The blot was probed sequentially with MBP-BSU1 and anti-MBP antibody (upper) and then stained with Ponceau S (lower). […] Tobacco leaf epidermal cells were transformed with indicated constructs. At5g49760 is a receptor kinase unrelated to BR signaling used here as a negative control. Bright spots in nYFP+BSK 1-cYFP and At5g49760-nYFP+BSK1-cYFP are chloroplast auto-fluorescence. […] Total protein extracts obtained from Arabidopsis plants (F1) expressing BSU1 -YFP or co-expressing BSU1-YFP and BSK1-myc were immunoprecipitated with anti-myc, and the immunoblot was probed with anti-GFP and anti-myc antibody. […] GST-BSK1 or GST-BSK1 S230A was incubated with GST-BRI1-K or GST for 2 hrs. […] In the presence of BR (+BR), BR binding to the extracellular domain of BRI1 induces dissociation of BKI1 and association and inter-activation between BRI1 and BAKI. Activated BRI1 then phosphorylates BSK1, which in turn dissociates from the receptor complex and interacts with and presumably activate BSU1. BSU1 inactivates BIN2 by dephosphorylating its pTyr200, allowing accumulation of unphosphorylated BZR1/2, likely with help of a phosphatase that is yet to be identified. Unphosphorylated BZR1/2 accumulate in the nucleus and alter the expression of BR-target genes, leading to cellular and developmental responses. While individual representative protein is shown for each function, in Arabidopsis most of these components have about 2 to 5 homologous proteins (paralogs) that can contribute to the same or similar signaling function.
(§2) Transformation by Agrobacterium infiltration, observations of subcellular localization and BiFC signal in tobacco or Arabidopsis were performed as described previously 5.

[2] = target: T1, BSL1 (BiFC construct tested with BSK1-cYFP) (Arabidopsis, UniProt Q8L7U5 1-881)
T1 sequence: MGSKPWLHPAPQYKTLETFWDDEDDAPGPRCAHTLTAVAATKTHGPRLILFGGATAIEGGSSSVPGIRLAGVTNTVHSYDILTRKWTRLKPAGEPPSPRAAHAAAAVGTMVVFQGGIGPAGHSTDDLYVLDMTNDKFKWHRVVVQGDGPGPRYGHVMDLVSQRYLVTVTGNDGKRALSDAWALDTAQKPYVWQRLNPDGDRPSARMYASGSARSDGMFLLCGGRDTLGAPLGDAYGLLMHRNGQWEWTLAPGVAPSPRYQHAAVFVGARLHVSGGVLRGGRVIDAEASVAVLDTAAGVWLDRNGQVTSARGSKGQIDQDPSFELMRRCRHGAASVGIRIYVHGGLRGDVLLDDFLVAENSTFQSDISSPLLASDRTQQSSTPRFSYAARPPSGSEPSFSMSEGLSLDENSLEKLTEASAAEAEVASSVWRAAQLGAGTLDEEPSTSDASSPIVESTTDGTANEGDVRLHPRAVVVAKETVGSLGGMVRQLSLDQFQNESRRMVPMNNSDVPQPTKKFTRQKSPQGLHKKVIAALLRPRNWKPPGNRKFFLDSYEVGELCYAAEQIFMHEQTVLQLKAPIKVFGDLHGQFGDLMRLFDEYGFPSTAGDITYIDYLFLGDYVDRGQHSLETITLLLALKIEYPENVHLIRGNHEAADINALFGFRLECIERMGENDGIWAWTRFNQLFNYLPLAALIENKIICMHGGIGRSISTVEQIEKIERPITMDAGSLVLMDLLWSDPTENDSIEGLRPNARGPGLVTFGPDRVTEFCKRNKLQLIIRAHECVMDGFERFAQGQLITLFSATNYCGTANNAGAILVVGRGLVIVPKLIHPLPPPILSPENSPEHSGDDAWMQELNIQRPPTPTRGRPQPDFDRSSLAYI
Text: as §1, §2

At5g49760-nYFP = target: T2, At5g49760-nYFP (UniProt Q8GZ99 24-953)
T2 construct: BiFC negative control; not shown: N-terminal half of YFP (nYFP)
T2 sequence (looked up): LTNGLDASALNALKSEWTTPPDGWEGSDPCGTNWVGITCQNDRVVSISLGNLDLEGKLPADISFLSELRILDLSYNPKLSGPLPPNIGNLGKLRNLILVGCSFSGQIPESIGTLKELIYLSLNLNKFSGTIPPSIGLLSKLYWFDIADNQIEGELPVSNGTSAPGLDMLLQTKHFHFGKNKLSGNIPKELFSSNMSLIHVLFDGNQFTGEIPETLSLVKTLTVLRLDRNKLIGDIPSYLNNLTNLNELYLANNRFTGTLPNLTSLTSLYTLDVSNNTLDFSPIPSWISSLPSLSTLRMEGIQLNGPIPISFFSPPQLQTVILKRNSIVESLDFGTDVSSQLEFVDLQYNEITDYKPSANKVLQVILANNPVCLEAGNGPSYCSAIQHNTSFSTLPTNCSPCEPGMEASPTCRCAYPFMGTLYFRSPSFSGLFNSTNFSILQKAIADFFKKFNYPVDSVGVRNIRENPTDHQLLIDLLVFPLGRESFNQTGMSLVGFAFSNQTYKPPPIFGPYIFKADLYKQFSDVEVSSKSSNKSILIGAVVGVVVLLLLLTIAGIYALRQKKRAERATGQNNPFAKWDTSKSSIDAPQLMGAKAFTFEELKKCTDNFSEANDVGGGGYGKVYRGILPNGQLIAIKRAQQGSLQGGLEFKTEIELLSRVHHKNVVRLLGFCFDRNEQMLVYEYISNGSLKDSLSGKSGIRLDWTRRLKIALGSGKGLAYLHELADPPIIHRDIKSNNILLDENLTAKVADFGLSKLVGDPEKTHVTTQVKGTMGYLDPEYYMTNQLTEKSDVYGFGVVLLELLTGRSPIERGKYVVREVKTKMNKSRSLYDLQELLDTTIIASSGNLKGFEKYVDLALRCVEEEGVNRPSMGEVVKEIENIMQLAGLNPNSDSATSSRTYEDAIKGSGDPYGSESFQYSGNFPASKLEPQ
Text: as §1, §2

Chain of BSU1 (BiFC construct tested with BSK1-cYFP) (Q9LR78 whole entry, the tested form may be a part): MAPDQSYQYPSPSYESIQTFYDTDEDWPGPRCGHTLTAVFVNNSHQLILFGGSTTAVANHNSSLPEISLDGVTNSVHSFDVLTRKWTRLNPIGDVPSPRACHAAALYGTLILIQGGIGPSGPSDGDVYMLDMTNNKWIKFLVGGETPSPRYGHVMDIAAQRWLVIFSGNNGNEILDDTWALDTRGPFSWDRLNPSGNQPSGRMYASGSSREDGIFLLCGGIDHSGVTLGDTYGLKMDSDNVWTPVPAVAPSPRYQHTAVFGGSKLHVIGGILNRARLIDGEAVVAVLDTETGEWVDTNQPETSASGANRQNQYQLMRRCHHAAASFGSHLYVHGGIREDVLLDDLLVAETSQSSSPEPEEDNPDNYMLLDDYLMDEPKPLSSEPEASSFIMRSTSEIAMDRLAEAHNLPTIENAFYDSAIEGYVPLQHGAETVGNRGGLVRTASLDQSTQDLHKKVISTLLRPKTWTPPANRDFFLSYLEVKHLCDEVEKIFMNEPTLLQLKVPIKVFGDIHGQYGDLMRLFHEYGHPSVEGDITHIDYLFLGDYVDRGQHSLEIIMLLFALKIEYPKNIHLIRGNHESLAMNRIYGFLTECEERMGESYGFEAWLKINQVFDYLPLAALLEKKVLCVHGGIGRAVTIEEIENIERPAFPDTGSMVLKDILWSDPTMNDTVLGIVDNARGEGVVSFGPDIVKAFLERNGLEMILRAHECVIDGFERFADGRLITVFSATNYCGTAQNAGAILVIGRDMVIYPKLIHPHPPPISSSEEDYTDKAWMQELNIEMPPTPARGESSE

binding result [1]: binds | binding result [2]: binds | binding result (At5g49760-nYFP): no binding
B1: BSK1-cYFP (enzyme, Arabidopsis, UniProt Q944A7 2-512, looked up)
chain: GCCQSLFSGDNPLGKDGVQPQPLSQNNHGGATTADNGGSGGASGVGGGGGGGGIPSFSEFSFADLKAATNNFSSDNIVSESGEKAPNLVYKGRLQNRRWIAVKKFTKMAWPEPKQFAEEAWGVGKLRHNRLANLIGYCCDGDERLLVAEFMPNDTLAKHLFHWENQTIEWAMRLRVGYYIAEALDYCSTEGRPLYHDLNAYRVLFDEDGDPRLSCFGLMKNSRDGKSYSTNLAYTPPEYLRNGRVTPESVTYSFGTVLLDLLSGKHIPPSHALDMIRGKNIILLMDSHLEGKFSTEEATVVVELASQCLQYEPRERPNTKDLVATLAPLQTKSDVPSYVMLGIKKQEEAPSTPQRPLSPLGEACSRMDLTAIHQILVMTHYRDDEGTNELSFQEWTQQMKDMLDARKRGDQSFREKDFKTAIDCYSQFIDVGTMVSPTVFGRRSLCYLLCDQPDAALRDAMQAQCVYPDWPTAFYMQSVALAKLNMNTDAADMLNEAAQLEEKRQRGGRGS
notes: BiFC construct in tobacco leaf epidermal cells; not shown: C-terminal half of YFP (cYFP)
